In the Human Domainome abundance scans (Beltran et al. 2025):

B1: Histone H1t, residues 44 to 112; numbered along this chain, P22492 (parent)
chain: VSKLITEALSVSQERVGMSLVALKKALAAAGYDVEKNNSRIKLSLKSLVNKGILVQTRGTGASGSFKLS

Variants of: B1
Test: abundance fitness (aPCA) (normalised: wild type 0, dead -1); higher = more abundant; growth selection in yeast, the domain comes from the species named
Details: Homo sapiens

Abundance fitness of substitutions, site by site:
M18: K 0.238, N 0.016, G -0.129, S 0.009, Y -0.487, W -0.374, L -0.077, I -0.37, D -0.359, V -0.318, F -0.481, R 0.107, T -0.006, C -0.127, E -0.108
A29: K 0.153, L -0.255, Q -0.081, P -0.491, T -0.04, R 0.002, W -0.323, G -0.223, M -0.097, V -0.215, H -0.236, I -0.248, S -0.039, E 0.066, F -0.276, D -0.085, C -0.088
V21: Q 0.181, I -0.067, E 0.038, A 0.091, Y -0.207, N 0.123, P -0.199, M -0.037, L -0.062, C -0.164, F -0.142, W -0.16, S 0.018, H 0.061, R 0.113, D 0
V34: Y -0.472, R -0.268, M -0.098, E -0.346, Q -0.309, D -0.327, S -0.199, H -0.4, L -0.214, W -0.252, K -0.104, I -0.123, A -0.171, T -0.068, G -0.306, P -0.212, C -0.179
E35: T -0.061, I -0.123, Y -0.036, N -0.064, Q -0.084, P -0.31, M -0.157, F -0.307, H -0.137, K 0.05, S -0.134
A30: F -0.368, T -0.048, D -0.328, P -0.364, C -0.136, M 0.021, R 0.051, I -0.318, Y -0.266, E -0.404, H -0.312, G -0.162, N -0.271, V -0.158, L -0.224, S -0.09, Q -0.137, W -0.15
K25: W -0.602, I -0.697, A -0.225, G -0.231, V -0.627, T -0.352, N -0.171, P -1.34, L -0.862, M -0.785, F -0.892, H -0.325, Y -0.827, E -0.085, D -0.158, S -0.23
S19: G 0.147, T -0.056, M -0.153, F -0.043, C -0.155, R -0.224, Q -0.171, Y -0.381, K -0.021, N -0.088, D 0.08, L -0.111, V -0.11, W -0.145, P -0.324, A -0.205, E -0.558
L20: F 0.013, H -0.465, I -0.026, W -0.008, Y 0.01, D -0.346, K -0.239, M -0.022, T -0.351, Q -0.5, S -0.561, P -0.841, G -0.412, C -0.205, R -0.537, V -0.048, A -0.234, E -0.046, N -0.724
A22: H -0.158, T -0.305, V -0.358, G -0.45, I -0.699, F -0.413, D -0.118, S 0.051, N -0.262, K -0.192, Q -0.003, E -0.801, Y -0.034, L -0.393, W -0.101, C -0.034
L27: Q -1.06, I -0.116, D -0.677, W -0.371, R -1.12, T -0.696, N -0.906, F -0.221, G -0.681, S -0.746, V -0.202, M -0.159, A -0.506, K -0.999, H -0.838, C -0.394, P -1.06
D33: T -0.025, A 0.063, P -0.214, N -0.254, Q 0.042, R 0.036, L -0.034, F 0.243, K -0.119, I -0.121, S -0.021, H 0.143, V 0.029, M 0.115, W 0.259, E 0.2, Y 0.144
K36: R -0.106, E -0.428, V -0.46, H -0.432, C -0.556, A -0.106, N -0.019, G -0.251, D -0.387, L -0.358, P -0.62, T -0.323, M -0.285, Q -0.152, W -0.626, I -0.628, S -0.25, Y -0.362
Y32: P -0.228, Q -0.121, N -0.114, K 0.064, T -0.193, H -0.052, I 0.022, R -0.055, W -0.116, L 0.032, F -0.072, C -0.391, S -0.14
G31: I -0.316, M -0.224, Y -0.066, N -0.357, L -0.297, V -0.149, E -0.89, H -0.366, F -0.285, D -0.752, P -0.434, Q -0.268, C -0.27, A -0.202, W -0.387, R -0.306, T -0.259, S -0.264
A28: L -0.087, V -0.098, W -0.327, C -0.175, S -0.114, G -0.106, M -0.089, Y -0.124, I -0.059, N -0.18, E -0.197, R 0.003, F -0.231, D -0.258
K24: F -0.494, R -0.161, Y -0.164, P -1.22, S -0.656, H -0.694, W -0.533, I -0.738, G -0.485, C -0.579, E -0.363, M -0.295, L -0.418, N -0.359, D -1.33, T -0.267
L23: D -1.22, I -0.087, G -1.27, W -0.541, E -0.47, F -0.197, V -0.076, C -0.363, Y -0.933, S -1, M -0.226, A -0.384, P -0.885, H -1.05, K -1.12, N -0.95, R -0.942
A26: M -0.033, Q -0.381, V -0.064, K 0.07, P -0.906, C -0.14, D -0.954, L -0.138, S -0.121, R -0.415, F -0.172, H -0.167, N -0.401, T -0.106, I -0.171, E -0.252
N37: A 0.244, D -0.397
V16: P -0.416, R -0.718, M -0.076, N 0.042, T -0.024, Y -0.045
G17: Q -0.075, N 0.015, P -0.484, K 0.157, Y -0.4, V -0.1, H -0.116, F -0.465, I -0.254, W -0.49, A -0.07, T -0.134, R -0.025, S -0.24, L -0.478, M -0.296, C -0.17, D -0.398
